Four substances from publication PMC3153611 can be followed below.

The target of this test is SRPK1 (UniProt Q96SB4). As to the kind of experiment: rapid quench single-turnover, fast-phase amplitude. The following applies: reference: 0P complex (no pre-phosphorylation).
Regarding “SRSF1 (aka ASF/SF2) (from UniProt Q07955) 6P complex (6.3 phosphates in RS1)”, the “other: fast-phase amplitude αp at 1 µM SRPK1” value (shortened to “other: fast-phase amplitude αp”) was “weaker; reference 1.0 ± 0.18”.

Consider “SRSF1 (aka ASF/SF2) (from UniProt Q07955) 4P complex (4 phosphates in RS1)”, for which the “other: fast-phase amplitude αp” value was “same; reference 1.0 ± 0.18”. Consider “SRSF1 (aka ASF/SF2) (from UniProt Q07955) 8P complex (8.3 phosphates in RS1)”, for which the “other: fast-phase amplitude αp” value is “weaker; reference 1.0 ± 0.18”. With “SRSF1 (aka ASF/SF2) (from UniProt Q07955) 1P complex (1.2 phosphates in RS1)”, the “other: fast-phase amplitude αp” value is on record as “same; reference 1.0 ± 0.18”.
